Experimental data taken from patent US20260132200A1.
Like-named read-outs stand apart in the source and are kept apart here.

Legend:
[1] = target: human CD20 expressed on Raji cells (CD3-, CD20+ human B-cell line) (human) (UniProt P11836); assay: cell-based or functional assay
[2] = target: cynomolgus monkey CD3 on monkey T cells (CD2+CD4+ cells of cynomolgus PBMCs) (cynomolgus monkey) (UniProt Q95LI5); assay: FACS on monkey PBMCs, CD2+CD4+ T cells
[3] = target: cynomolgus monkey CD3 on monkey T cells (CD2+CD4+ cells of cynomolgus PBMCs) (cynomolgus monkey) (UniProt Q95LI5); assay: FACS on cynomolgus PBMCs, CD2+CD4+ T cells
[4] = target: human CD3 expressed on cells (Jurkat, a CD3+ human T-cell line; human T cells) (human) (UniProt P07766); assay: cell-based or functional assay
[5] = target: human CD3 expressed on cells (Jurkat, a CD3+ human T-cell line; human T cells) (human) (UniProt P07766); assay: cell-based or functional assay; remark: listed apart in the source

Sequence of human CD20 expressed on Raji cells (CD3-, CD20+ human B-cell line) (human) (P11836 whole entry): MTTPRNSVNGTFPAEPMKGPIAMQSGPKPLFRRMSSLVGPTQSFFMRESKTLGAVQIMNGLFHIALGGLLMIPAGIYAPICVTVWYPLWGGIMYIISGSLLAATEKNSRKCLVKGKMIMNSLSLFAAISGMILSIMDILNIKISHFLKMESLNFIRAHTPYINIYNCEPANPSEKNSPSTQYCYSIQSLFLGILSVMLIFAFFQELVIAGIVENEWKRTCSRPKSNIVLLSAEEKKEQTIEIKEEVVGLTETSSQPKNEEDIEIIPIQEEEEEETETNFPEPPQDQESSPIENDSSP
Sequence of cynomolgus monkey CD3 on monkey T cells (CD2+CD4+ cells of cynomolgus PBMCs) (cynomolgus monkey) (Q95LI5 22-198): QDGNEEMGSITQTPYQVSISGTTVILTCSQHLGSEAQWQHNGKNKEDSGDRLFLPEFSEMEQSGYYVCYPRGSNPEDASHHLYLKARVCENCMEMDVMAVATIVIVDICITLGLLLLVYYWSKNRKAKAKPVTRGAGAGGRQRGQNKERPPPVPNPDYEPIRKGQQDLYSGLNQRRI

## Control III: anti-CD20 therapeutic antibody with heavy and light chain sequences of Rituxan (Rituximab)
[1]
  CDC EC50, Raji: 96.6 pM
  CDC EC50, Raji SCID1: 85600 pM
  CDC EC50, Raji SCID2: 58.7 pM
  CDC EC50, Raji SCID3: 25500 pM
  CDC EC50, Raji SCID4: 5290 pM

## SP34, mouse monoclonal antibody reactive against the epsilon chain of the T3 complex on human T lymphocyte cells
[2]
  EC50: 70.3 pM
[3]
  EC50: 70.3 pM

## OKT-3, mouse monoclonal antibody against human T-cell surface antigens (ATCC CRL-8001)
[4]
  U937 Cytotoxicity Human T-cells [M] (EC50): 3.04e-12 M
[5]
  U937 Cytotoxicity Human T-cells [M] (EC50): 2.35e-12 M
